B1: Azoarcus group I ribozyme (parent)
chain: GUGCCUUGCGCCGGGAAACCACGCAAGGGAUGGUGUCAAAUUCGGCGAAACCUAAGCGCCCGCCCGGGCGUAUGGCAACGCCGAGCCAAGCUUCGGCGCCUGCGCCGAUGAAGGUGUAGAGACUAGACGGCACCCACCUAAGGCAAACGCUAUGGUGAAGGCAUAGUCCAGGGAGUGGCGAAAGUCACACAAACCGG

Variants of B1 are the subject of the data set. Kind of data set: reverse-splicing fitness (ratio to wild type); higher = more active; in vitro selection; Mg2+ level not given. The method, boiled down: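 An in vitro group I ribozyme library with randomized positions was T7-transcribed and gel-purified. In triplicate, 10 pmol RNA in EPPS pH 7.5 was reacted with 50 pmoles of a 30-nt RNA substrate for 1 h at 37 °C across several added MgCl2 levels (1–48 mM), then stopped with EDTA. Products were reverse transcribed from a substrate-complementary primer, PCR-amplified and sequenced (HiSeq 4000). Fitness is a variant's read proportion after selection over that before, normalised to wild type.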
In the case of C82U A111G A120U C150G U176G, the reverse-splicing fitness is 0.00216.
On to C82U A111G A120U A145C C150G C169A U176C, for which the reverse-splicing fitness was 0.00258.
In the case of C82U A111G A120U A145C C150G C169A U176G it was 0.00209; in that of C82U A111G A145C C150A, 0.019; in that of C82U A111G A145C C150U, 0.091.
Then C82U A111G A145C C150G, with 0.0393; and C82U A111G A145C C150G C169G U176A, with 0.00777; and C82U A111G A145C C150G C169G U176G, with 0.0047.
For the variant C82U A111G A145C C150G C169G U176C, the reverse-splicing fitness was determined as 0.00634.
In the case of C82U A111G A120U A145G U176G it was 0.00369.
As to C82U A111G A120U A145G U176C, the reverse-splicing fitness turned out to be 0.0172.
As to C82U A111G A120U A145G U176A, the reverse-splicing fitness is 0.0106.
Then C82U A111G A120U A145U C169A U176G, with 0.00175; and C82U A111G A120U A145U C169A U176C, with 0.0022; and C82U A111G A120U A145U C169A U176A, with 0.00208.
On to C82U A111G A120U C150G C169G U176G, for which the reverse-splicing fitness stood at 0.0022.
Take C82U A111G A120U C150G C169G U176A: the reverse-splicing fitness was 0.00513.
As for C82U A111G A120U C150G C169G U176C, the reverse-splicing fitness turned out to be 0.00318.
As to C82U A111G A120U A145U C169G U176C, the reverse-splicing fitness stood at 0.00255.
Then C82U A111G A120U A145U C169G U176A, with 0.00205; and C82U A111G A120U A145U C169G U176G, with 0.00135; and C82U A111G A120U C150A C169U U176A, with 0.00577.
Then C82U A111G A120U C150A C169U U176C, with 0.00372.
Regarding C82U A111G A120U C150A C169U U176G, the reverse-splicing fitness was 0.00202.
C82U A111G A145C C150A C169G: the reverse-splicing fitness stood at 0.0066.
For the variant C82U A111G A145C C150A C169U, the reverse-splicing fitness is 0.00807.
Consider C82U A111G A145C C150A C169A, for which the reverse-splicing fitness is 0.0083.
Consider C82U A111G A145C C150U C169G U176G, for which the reverse-splicing fitness came out at 0.00565.
Then C82U A111G A145C C150U C169G U176C, with 0.00977.
Then C82U A111G A145C C150U C169G U176A, with 0.0186.
Consider C82U A111G A120U A145C C150U C169G U176C, for which the reverse-splicing fitness stood at 0.00203.
Take C82U A111G A120U A145C C150U C169G U176A: the reverse-splicing fitness is 0.00322.
In the case of C82U A111G A120U A145C C150U C169G U176G it was 0.00171.
Then C82U A111G A120U A145G C150G, with 0.00906.
Then C82U A111G A120U A145G C150A, with 0.01; and C82U A111G A120U A145G C150U, with 0.0339; and C82U A111G A120U A145G C150G C169U U176C, with 0.00581.
Take C82U A111G A120U A145G C150G C169U U176A: the reverse-splicing fitness was 0.00458.
As to C82U A111G A120U A145G C150G C169U U176G, the reverse-splicing fitness was found to be 0.00292.
For C82U A111G A145C C150U U176C, the reverse-splicing fitness came to 0.0617.
Regarding C82U A111G A145C C150U U176G, the reverse-splicing fitness was 0.0185.
In the case of C82U A111G A145C C150U U176A it was 0.0454; in that of C82U A111G A145C, 0.406.
With C82U A111G A145G, the reverse-splicing fitness was 0.433.
In the case of C82U A111G A145G C150G U176A it was 0.00967; in that of C82U A111G A145G C150G U176C, 0.0206.
As to C82U A111G A145G C150G U176G, the reverse-splicing fitness was determined as 0.00618.
In the case of C82U A111G A120U C150A it was 0.00814; in that of C82U A111G A120U C150U, 0.0236; in that of C82U A111G A120U C150G, 0.00763.
In the case of C82U A111G A145C C150U C169A U176A it was 0.00923.
Turning to C82U A111G A145C C150U C169A U176C, the reverse-splicing fitness was found to be 0.00548.
Then C82U A111G A145C C150U C169A U176G, with 0.00526; and C82U A111G A120U A145G C150G C169U, with 0.00654; and C82U A111G A120U A145G C150G C169A, with 0.00768.
In the case of C82U A111G A120U A145G C150G C169G it was 0.00671; in that of C82U A111G A120U C150G C169A U176G, 0.00235.
In the case of C82U A111G A120U C150G C169A U176C it was 0.00364.
Take C82U A111G A120U C150G C169A U176A: the reverse-splicing fitness was determined as 0.00509.
For the variant C82U A111G A120U A145G C150G C169A U176A, the reverse-splicing fitness was determined as 0.0084.
For the variant C82U A111G A120U A145G C150G C169A U176C, the reverse-splicing fitness was found to be 0.00712.
Then C82U A111G A120U A145G C150G C169A U176G, with 0.00326.
In the case of C82U A111G A145G C150G C169U it was 0.00891.
Take C82U A111G A145G C150G C169G: the reverse-splicing fitness is 0.007.
Take C82U A111G A145G C150G C169A: the reverse-splicing fitness is 0.00883.
Then C82U A111G A120U A145U C150U C169U U176C, with 0.00261.
In the case of C82U A111G A120U A145U C150U C169U U176A it was 0.00262; in that of C82U A111G A120U A145U C150U C169U U176G, 0.00192; in that of C82U A111G A120U A145U C150G C169U, 0.00235.
As for C82U A111G A120U A145U C150G C169G, the reverse-splicing fitness was 0.00266.
In the case of C82U A111G A120U A145U C150G C169A it was 0.00272.
Then C82U A111G A120U A145G C150A C169G, with 0.00549; and C82U A111G A120U A145G C150A C169A, with 0.00559.
Regarding C82U A111G A120U A145G C150A C169U, the reverse-splicing fitness was 0.00348.
Then C82U A111G A120U A145C C150U, with 0.011.
Regarding C82U A111G A120U A145U C150U U176C, the reverse-splicing fitness was found to be 0.013.
On to C82U A111G A120U A145U C150U U176G, for which the reverse-splicing fitness was 0.00372.
C82U A111G A120U A145U C150U U176A: the reverse-splicing fitness worked out at 0.00763.
In the case of C82U A111G A120U A145C C150G U176G it was 0.00159.
Take C82U A111G A120U A145C C150G U176A: the reverse-splicing fitness worked out at 0.0026.
Then C82U A111G A120U A145C C150G U176C, with 0.00405; and C82U A111G A120U A145U C150A C169U U176G, with 0.00158; and C82U A111G A120U A145U C150A C169U U176A, with 0.00278.
Then C82U A111G A120U A145U C150A C169U U176C, with 0.00216.

The values are drawn from the RNAGym collection of RNA variant scans (doi:10.1093/molbev/msab373).
